In the supplement of paper PMC12042874 one finds amyloid nucleation score data, which are given here for 144 substances.

± gives the uncertainty stated by the source.

A short description of the data set: amyloid nucleation score (Sup35N fusion, yeast selection) (log enrichment); library NNK2; higher = more nucleation; inactive = no reads after selection. The essentials: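 On medium lacking adenine and uracil, psi-negative yeast expressing peptides of 20 random codons fused to Sup35N were grown 7 days at 30°C after a 24-hour induction with 100 μM copper sulfate. Illumina sequencing of input and output plasmid inserts gave the reads, and sequences under 100 input reads were excluded. The nucleation score is the DiMSum log enrichment of output over input reads, centred on the mode score of non-aggregating sequences.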
KERNRRAEAGSYNYVGVWVT showed an amyloid nucleation score of 0.951 ± 0.81.

In turn, KFAKSSNKDHHDFYAVELGT returned an amyloid nucleation score of -0.289 ± 0.63.

As for KFFMPTYN, the amyloid nucleation score was 1.58 ± 0.17.

As to KFMCSELSNFCINCILRLVV, the amyloid nucleation score is -0.19 ± 1.1.

The substance KGCVMSY gave an amyloid nucleation score of -0.578 ± 1.1.

KGFRMRAWWRVGVLDCDAGT had an amyloid nucleation score of 0.082 ± 1.1.

Turning to KGGWYNNYGAVNKNGWCSDK, the amyloid nucleation score is -0.501 ± 1.1.

In turn, KGLASKAHSIGLCT gave an amyloid nucleation score of 1.01 ± 0.25.

In the case of KGNTIKSCSRMMLHRQHVW, the amyloid nucleation score was -0.485 ± 0.45.

The substance KHEIQVS came in with an amyloid nucleation score of 0.33 ± 0.56.

For KHGSMVICKPAIYTVLT, the amyloid nucleation score is -0.021 ± 0.63.

In turn, KHYAL came in with an amyloid nucleation score of 0.169 ± 0.8.

Take KIIVHYIYRRIRLCDSNLKR: the amyloid nucleation score turned out to be 8.398 ± 0.046.

Regarding KILALATRLKIFSSLVYIRS, the amyloid nucleation score came out at 0.338 ± 0.51.

Substance KILRVKRQGRGSRNR yielded an amyloid nucleation score of -0.055 ± 0.55.

As to KINIKGFSSYAGRYHTRKIW, the amyloid nucleation score result was “inactive”.

In turn, KISCKKNWGAYVPF gave an amyloid nucleation score of -0.594 ± 1.1.

As to KITAGSGVL, the amyloid nucleation score amounted to 0.904 ± 0.81.

The substance KIVVSFWLLPCFGKLFFPSV came in with an amyloid nucleation score of -0.618 ± 0.76.

Consider KKEVINWYFLTYAGLEKLCL, for which the amyloid nucleation score was -0.715 ± 0.48.

On to KKSFGLLENIMVSDLFPNSS, for which the amyloid nucleation score result was “inactive”.

On to KKSSECHKSEG, for which the amyloid nucleation score was determined as 0.361 ± 0.45.

For the substance KLCKVYVRRRSIICWGNCVP, the amyloid nucleation score was -0.481 ± 1.1.

In turn, KLDTLRFCVGAHLGTPTLCW showed an amyloid nucleation score of 0.499 ± 0.34.

KLDVAAFVKVAE yielded an amyloid nucleation score of 6.142 ± 0.039.

Consider KLFFTDGFLYGNPLLSDGLD, for which the amyloid nucleation score is -0.58 ± 0.39.

KLHRSESVHVICTVCS: the amyloid nucleation score turned out to be 1.17 ± 0.3.

For the substance KLHVGNCSFSKPSPAQAGSL, the amyloid nucleation score was found to be 0.34 ± 0.29.

With KLIMFCDMLKVRSNNFRSRK, the amyloid nucleation score was determined as 5.55 ± 0.077.

In turn, KLISCGCVLADWNMGYP returned an amyloid nucleation score of 3.76 ± 0.12.

KLLFCERGKSGSNQSSLTKT: the amyloid nucleation score was -0.523 ± 0.54.

In turn, KLNLMCWDGLYLDMKIDSNL had an amyloid nucleation score of 3.94 ± 0.07.

KLNNVRLGGERFDLRTLGLR registered an amyloid nucleation score of -0.104 ± 0.42.

Substance KLRPNLCKHYMTFMETSS had an amyloid nucleation score of 0.175 ± 0.53.

KLWAPWYNLWLFALTIVCDI registered an amyloid nucleation score of 0.343 ± 0.64.

As for KNCFMIV, the amyloid nucleation score was -2.26 ± 1.

For the substance KNDFLNM, the amyloid nucleation score entry was “inactive”.

The substance KNDGEVMKSVFKDRHCCART displayed an amyloid nucleation score of -0.565 ± 0.48.

The substance KNKQRYSPIITLLVTKSVAF showed an amyloid nucleation score of 2.67 ± 0.056.

KNLVDWVYYPPMH: the amyloid nucleation score was -1.23 ± 0.62.

Take KPFELEIRGKGQRHVEVV: the amyloid nucleation score came out at 1.61 ± 0.26.

In the case of KPHRIENGSTREDEEG, the amyloid nucleation score amounted to 0.747 ± 0.31.

In turn, KQEHSYYNLDDLGHRGSEGA yielded an amyloid nucleation score of -0.536 ± 1.1.

On to KRGKMHYCKFAHAAITVTQL, for which the amyloid nucleation score is -0.515 ± 0.43.

KRIIFALL registered an amyloid nucleation score of -0.337 ± 0.48.

In turn, KRILQMDHRLLNHNSELLKR yielded an amyloid nucleation score of -0.397 ± 0.45.

KRINCPKFSNGQYGLS: the amyloid nucleation score result is “inactive”.

Substance KRRSLGLLISLVTMGDK returned an amyloid nucleation score of 0.917 ± 0.31.

Turning to KRSMKESWVYNLCNRVYCKG, the amyloid nucleation score was determined as 0.467 ± 0.8.

Regarding KRVFAKVTVMDHSNSG, the amyloid nucleation score result is “inactive”.

As to KRWIT, the amyloid nucleation score is -0.65 ± 0.55.

Consider KSAQEF, for which the amyloid nucleation score was 0.839 ± 0.43.

On to KSCGRLAAEYSPPRMACGHD, for which the amyloid nucleation score amounted to 1.18 ± 0.41.

The substance KSEAGYA had an amyloid nucleation score of 0.658 ± 0.51.

KSEVWSYLI showed an amyloid nucleation score of 4.51 ± 0.061.

As for KSFSCVCPWFGH, the amyloid nucleation score amounted to 10.32 ± 0.031.

For KSLNDDVKLKNKGSSPSAPW, the amyloid nucleation score result was “inactive”.

For the substance KSMKEFSKFVLMSAP, the amyloid nucleation score was found to be 0.192 ± 0.46.

Substance KSQILACYNQLP displayed an amyloid nucleation score of 0.83 ± 0.48.

As to KSRFML, the amyloid nucleation score was found to be 0.627 ± 0.57.

In turn, KSRPSTV showed an amyloid nucleation score of -1.68 ± 1.

The substance KSRVVMRTHAHSALWKWPGR registered an amyloid nucleation score of 1.64 ± 0.28.

Consider KSSVELWTFERA, for which the amyloid nucleation score was determined as 1.14 ± 0.33.

KSTGDCFLKMINYYCGWS showed an amyloid nucleation score of 6.066 ± 0.052.

Take KSVASVMVYYALRIPYHIEC: the amyloid nucleation score entry is “inactive”.

As to KSYMARMWYMVRLMLTCLDY, the amyloid nucleation score was 0.741 ± 0.47.

Substance KTAVSNVRCMY showed an amyloid nucleation score of -0.227 ± 0.62.

KTIVSYV: the amyloid nucleation score result is “inactive”.

KTLRCQRMVGYWGIRVDLGR registered an amyloid nucleation score of 1.31 ± 0.42.

Regarding KTNVMERCHFQRILCFGMW, the amyloid nucleation score entry is “inactive”.

Consider KTYGGLLSLPVVLRMLEPRA, for which the amyloid nucleation score amounted to 0.319 ± 0.61.

Regarding KVALL, the amyloid nucleation score is -0.257 ± 0.76.

In the case of KVELYYWVSTLSVCSLALYS, the amyloid nucleation score was 6.07 ± 0.084.

For the substance KVISSVSEPLSKKEDYE, the amyloid nucleation score is -0.706 ± 0.3.

As to KVKGLILDHDYRFRI, the amyloid nucleation score entry was “inactive”.

On to KVKSLYLSMVQGWMFYV, for which the amyloid nucleation score was -0.425 ± 0.24.

For KVPDKGEKLCSLLAFGYQG, the amyloid nucleation score was 0.736 ± 0.8.

KVSWEDSFLFLCQCRRDCTL gave an amyloid nucleation score of 8.707 ± 0.039.

KVTARPFRQC showed an amyloid nucleation score of 4.997 ± 0.045.

Regarding KVVCLMVISCCLPLAPHRGW, the amyloid nucleation score worked out at 3.53 ± 0.11.

On to KVVGGLVLHGSL, for which the amyloid nucleation score result is “inactive”.

KVYATVDFDLLGQAPTSAMN returned an amyloid nucleation score of 4.83 ± 0.091.

For the substance KWMLHSVR, the amyloid nucleation score amounted to 0.772 ± 0.22.

Take KYFVTNRVVWTDRVSIFGV: the amyloid nucleation score stood at 1.07 ± 0.53.

The substance KYMRLSSPAGSAVPLWTLYL gave an amyloid nucleation score of 0.148 ± 1.

KYRCLLRATPFDKEVGSTRF: the amyloid nucleation score is -0.753 ± 1.

Turning to KYVSCNLLIGWYTLFSFYPF, the amyloid nucleation score is -0.649 ± 0.4.

The substance KYWFDGYLGYF showed an amyloid nucleation score of -1.14 ± 0.29.

LAAVLVHAWFVKRLRMPNHH had an amyloid nucleation score of 0.93 ± 0.44.

With LACTKQFQVAVVFPDYTFIA, the amyloid nucleation score was determined as 3.71 ± 0.064.

On to LAFAILFPFGSLRDGST, for which the amyloid nucleation score stood at 0.585 ± 0.8.

LAFFGVLSSFYSRFGIKTKM: the amyloid nucleation score is -1.83 ± 0.54.

On to LAFMRLPAVVLSSTLSFMKS, for which the amyloid nucleation score stood at 0.789 ± 0.66.

LAHHMF showed an amyloid nucleation score of 0.429 ± 0.8.

LAIVLRGNFTIVSTAIE: the amyloid nucleation score is 3.26 ± 0.1.

The substance LALFALMLLLF yielded an amyloid nucleation score of -0.055 ± 0.26.

Take LAMEWSRCRTGPL: the amyloid nucleation score was 1.68 ± 0.15.

LARASKHCSEVLGDCLA yielded an amyloid nucleation score of 0.366 ± 0.8.

Regarding LARCGPKLW, the amyloid nucleation score is 3.43 ± 0.07.

Substance LARYFAKKLYNFYFLAFTGW gave an amyloid nucleation score of 1.14 ± 0.29.

For LASMMPSKIPN, the amyloid nucleation score result is “inactive”.

For the substance LATKMSRGYSIRDWS, the amyloid nucleation score came to 0.052 ± 0.24.

With LAVKRMFSNFIFKAGTRNIW, the amyloid nucleation score result is “inactive”.

LAYLSLICFCVDSPTQVGLM gave an amyloid nucleation score of 10.11 ± 0.038.

LCAGGVGRRWLVLDTAECDG returned an amyloid nucleation score of 0.59 ± 0.64.

LCCLMDFMITNLITFQRMTS: the amyloid nucleation score is 4.33 ± 0.11.

For the substance LCEEICLDFFMVRMFKHASY, the amyloid nucleation score came to 1.63 ± 0.11.

Consider LCGNRGFYDH, for which the amyloid nucleation score was -0.177 ± 0.54.

Turning to LCIEMD, the amyloid nucleation score worked out at 0.566 ± 0.38.

The substance LCPYR came in with an amyloid nucleation score of -0.776 ± 1.1.

The substance LCSCANCLYSFFTG showed an amyloid nucleation score of 8.04 ± 0.023.

As to LCWFAMLEYVWDGHAVGDSI, the amyloid nucleation score amounted to 4.06 ± 0.061.

LCWFSNRSRLEEVS: the amyloid nucleation score entry was “inactive”.

LCYFCISGDRHSLEVKTLVT registered an amyloid nucleation score of -0.527 ± 0.4.

LCYWCTCR came in with an amyloid nucleation score of 0.141 ± 0.41.

LCYWPYDSVYLLTRFTVNGF showed an amyloid nucleation score of -0.349 ± 0.25.

LDEPRM displayed an amyloid nucleation score of 0.16 ± 0.24.

In turn, LDGFLLSISLRINKRLSSGR came in with an amyloid nucleation score of 4.79 ± 0.061.

The substance LDIITGLSSISGTHIFGSSP registered an amyloid nucleation score of -0.627 ± 0.78.

In turn, LDINIFM displayed an amyloid nucleation score of -0.304 ± 1.1.

In turn, LDLSDHWACQIIGVL showed an amyloid nucleation score of 0.394 ± 0.43.

Consider LDMITTINS, for which the amyloid nucleation score was -1.6 ± 0.54.

LDRDVVYTCVDCVFGVGILK displayed an amyloid nucleation score of -1.19 ± 0.75.

Substance LDRSRTKSWLGDFWG came in with an amyloid nucleation score of -0.074 ± 0.46.

Substance LDRYLG yielded an amyloid nucleation score of 0.064 ± 0.3.

For LDSGHNGDVNGG, the amyloid nucleation score was -0.45 ± 0.64.

LDSVQWNGCMIRYSYLGMGW came in with an amyloid nucleation score of -0.138 ± 0.3.

For LDSWRPN, the amyloid nucleation score is -0.393 ± 0.39.

As for LDVAGKVKASHKLRAWVWFS, the amyloid nucleation score is 0.436 ± 0.8.

The substance LDVTHN yielded an amyloid nucleation score of 0.6 ± 0.35.

With LDVVWSRVVRCRCVSWGNSL, the amyloid nucleation score was 0.054 ± 0.65.

As to LDYRPCEDNDDVDVSEILHG, the amyloid nucleation score stood at 0.224 ± 0.25.

In the case of LECRLC, the amyloid nucleation score was 0.308 ± 0.25.

Turning to LECVT, the amyloid nucleation score came to 0.078 ± 0.74.

As for LEGFTRA, the amyloid nucleation score was -0.909 ± 0.36.

Substance LEGMFLPGFFSCVRFLWL had an amyloid nucleation score of -1.51 ± 0.78.

In turn, LELHGT gave an amyloid nucleation score of -1.22 ± 0.45.

Take LELKFFHHPSPCFYNITQSA: the amyloid nucleation score came out at 3.76 ± 0.092.

As to LELLSLIFSFG, the amyloid nucleation score worked out at 2.13 ± 0.18.

As for LELMEYPL, the amyloid nucleation score was -0.153 ± 0.45.

LEMFYRVPLPRCKTYLQFRC showed an amyloid nucleation score of 0.471 ± 0.62.

LENWSNMGENCSTVDRPNLF displayed an amyloid nucleation score of -0.4 ± 1.1.

As to LETGNRRHTEYLCYDVWVIL, the amyloid nucleation score is 0.394 ± 0.39.

Regarding LEWLFA, the amyloid nucleation score worked out at 0.155 ± 1.1.
